Laboratory results: paper PMC6750898

Key:
[1] = target: penton protein P31 of bacteriophage PR772 (bacteriophage PR772); assay: cryo-EM structure; localized asymmetric (C1) reconstruction of the five-fold vertex after capsid signal subtraction (about 10 Å for the class with P2; 4.41 Å for the penton) and focused classification of the penton base (4.25 Å); models fitted as rigid bodies; purified wild-type virions
[2] = target: host-recognition protein P5 of bacteriophage PR772 (bacteriophage PR772); assay: as above
[3] = target: capsid associated protein P30 of bacteriophage PR772 (bacteriophage PR772); assay: cryo-EM structure; icosahedrally averaged (I4) single-particle reconstruction of purified wild-type PR772 virions; overall 2.75 Å, capsid 2.3 Å; de-novo model of the asymmetric unit; difference density map of the vertex region
[4] = target: major capsid protein P3 of bacteriophage PR772 (bacteriophage PR772); assay: as above

## host-recognition protein P5 of bacteriophage PR772 (natural protein)
[1]
  stoichiometry N (copies of P5 in the penton base): 3
  stoichiometry N (copies of P31 in the penton base): 2
[2]
  stoichiometry N: 3

## capsid associated protein P30 of bacteriophage PR772 (natural protein)
[3]
  stoichiometry N: 2

## major capsid protein P3 of bacteriophage PR772 (natural protein)
[4]
  stoichiometry N: 3

## receptor-binding protein P2 of bacteriophage PR772 (natural protein)
[2]
  percent of vertex sub-particles with a density representing P2: 16%
